Measured values reported in US20190352411A1 (ALLIGATOR BIOSCIENCE, published 2019).

Tests used:
[1] = molecular target: T1, recombinant human OX40 (R&D #1493-CD) (human, UniProt P43489 29-216, limits assumed); test: ELISA, coated OX40
T1 construct: Coated on ELISA plates
T1 sequence (looked up): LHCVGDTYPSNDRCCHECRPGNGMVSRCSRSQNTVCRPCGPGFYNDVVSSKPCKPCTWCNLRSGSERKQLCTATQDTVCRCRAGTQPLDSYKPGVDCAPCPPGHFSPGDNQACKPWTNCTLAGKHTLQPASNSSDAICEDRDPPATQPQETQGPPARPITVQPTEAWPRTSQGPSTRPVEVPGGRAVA
Experimental: Binding to TNFR superfamily members for which ELISA methods had already been established (CD40 and OX40) was evaluated to detect potential propensity to cross react to non-target proteins.
ELISA plates (Greiner #655074) were coated with 50 μl/well of recombinant human OX40 (R&D #1493-CD), CD40-Fc (Ancell #504-820) or CD137 (R&D #838-4B) diluted to a final concentration of 0.5 μg/ml in PBS for 1 h at 37° C. or overnight at 4° C. Plates were washed with PBS+0.05% TWEEN20 (PBST), followed by block with PBST+1% bovine serum albumin (BSA). Antibody samples were prepared as serial 1/10 dilutions from 10-0.01 μg/ml in PBST+1% BSA and incubated for 1 h in room temperature, followed by detection using a horse radish peroxidase-conjugated anti-human kappa light chain antibody (AbD Serotec # STAR127P) and developed using SuperSignal ELISA Pico Chemiluminescent substrate (Pierce ThermoScientific #37069).

[2] = molecular target: T2, 1550: Human CD137 with mouse domains 1, 2A and 2B (aa 24-86) (human; mouse, UniProt P20334 24-85); test: flow cytometry on transfected 293-F cells, human/mouse CD137 chimera
T2 construct: domain: domains 1, 2A and 2B (aa 24-86); Human/mouse chimera transiently expressed on FreeStyle 293-F cells; Limits of the human pieces are worked out from the printed aa range
Experimental: (§1) The ability of each antibody to bind to a panel of human/mouse CD137 chimeras expressed on the surface of transfected cells was analyzed by flow cytometry.
(§2) The chimeras were designed by exchanging domains or modules of the human CD137 with the corresponding mouse domain. Genes of CD137 human/mouse chimeras were synthesized (GenScript) and constructs cloned into pcDNA3.1 vector (Invitrogen) and transiently transfected into FreeStyle 293-F cells (Invitrogen). The transfected cells were incubated with CD137 antibodies and control antibodies, followed by incubation with anti-human IgG-PE (Jackson Immunoresearch) for detection and analyzed with FACS Verse (BD Biosciences). Binding to the different chimeric constructs was calculated as relative MFI compared to the binding of the isotype control, followed by normalization to the full-length human CD137 construct to minimize the effect of affinity differences between individual antibodies.

[3] = molecular target: T3, 1551: Human CD137 with mouse domains 2A, 2B and 3A (aa 47-96) (human; mouse, UniProt P20334 46-95); test: as above
T3 construct: domain: domains 2A, 2B and 3A (aa 47-96); Human/mouse chimera transiently expressed on FreeStyle 293-F cells
Experimental: as §1, §2

[4] = molecular target: T4, 1552: Human CD137 with mouse domains 2B, 3A and 3B (aa 64-118) (human; mouse, UniProt P20334 63-117); test: as above
T4 construct: Human/mouse chimera transiently expressed on FreeStyle 293-F cells
Experimental: as §1, §2

[5] = molecular target: T5, 1553: Human CD137 with mouse domains 3A, 3B and 4A (aa 87-133) (human; mouse, UniProt P20334 86-133); test: as above
T5 construct: domain: domains 3A, 3B and 4A (aa 87-133); Human/mouse chimera transiently expressed on FreeStyle 293-F cells
Experimental: as §1, §2

[6] = molecular target: T6, 1554: Human CD137 with mouse domains 3B, 4A and 4B (aa 97-159) (human; mouse, UniProt P20334 96-159); test: as above
T6 construct: domain: domains 3B, 4A and 4B (aa 97-159); Human/mouse chimera transiently expressed on FreeStyle 293-F cells
Experimental: as §1, §2

[7] = molecular target: T7, 1555: Human CD137 with mouse domains 1 and 4B and region of unknown function (aa 24-46 and aa 139-186) (human; mouse, UniProt P20334 24-45; P20334 139-185); test: as above
T7 construct: Human/mouse chimera transiently expressed on FreeStyle 293-F cells
Experimental: as §1, §2

[8] = molecular target: T8, human CD137 on transfected CHO cells (CHO-huCD137) (human); test: flow cytometry on CHO-huCD137 cells; 95% confidence interval of the EC50
T8 construct: domain: transmembrane and intracellular part
Experimental: Binding and EC50 was determined using flow cytometric of CHO cells transfected with human CD137, cynomolgus CD137 or empty vector. The extracellular part of human or cynomolgus CD137 was fused to the transmembrane and intracellular part of human CD40 and cloned into pcDNA3.1. The vector was subsequently stably transfected into CHO cells. […] CD137-transfected and empty vector-transfected cells were incubated with CD137 antibodies for at least 1 h at 4° C. to saturate the binding. In order to minimize antibody internalization, 0.05% sodium azide was used in the incubation buffer and all work was performed on ice. The CD137 antibodies were detected using PE-conjugated anti-hIgG antibody (109-115-098, Jackson Immunoresearch laboratories), incubated for 30 min at 4° C. Directly after staining the cells were fixed with a paraformaldehyde solution (10× concentrate BD CellFIX, BD biosciences #340181). Cells were analyzed by flow cytometry using FACSVerse (BD Biosciences). The median fluorescence intensity (MFI) for each sample was determined and the dose response data was analysed using Graph Pad Prism.
MFI data was normalized for each antibody, where 0% is defined as the lowest value and 100% is the highest value in the dose titration for each antibody.

[9] = molecular target: human CD137 (Acro Biosystems #41B-H5227) (human, UniProt Q07011 24-186); test: Octet (BLI), antibody amine-coupled to ARG2 biosensor, soluble CD137 as analyte, 1:1 model
Experimental: Materials and method CD137 affinity was determined using the Octet Red 96 platform (ForteBio). […] 7 2-fold serial dilutions of CD137 (Acro Biosystems #41B-H5227 and #41B-C52H4) from 100 nM was prepared in 1× kinetic buffer (ForteBio #18-1092). Association was measured for 180 s followed by dissociation for 180 s in 1× kinetic buffer. 10 mM Glycine pH 2.2 was used for regeneration.
Data generated was referenced by reference well subtraction (1188), the baseline was aligned with the y-axis, inter-step correlation by alignment against association was performed and the data was smoothed by a Savitzky-Golay filtering in the data analysis software (v.9.0.0.14). The processed data was fitted using a 1:1 Langmuir binding model with X² as a measurement of fitting accuracy.

human CD137 (Acro Biosystems #41B-H5227), sequence (Q07011 24-186 limits assumed): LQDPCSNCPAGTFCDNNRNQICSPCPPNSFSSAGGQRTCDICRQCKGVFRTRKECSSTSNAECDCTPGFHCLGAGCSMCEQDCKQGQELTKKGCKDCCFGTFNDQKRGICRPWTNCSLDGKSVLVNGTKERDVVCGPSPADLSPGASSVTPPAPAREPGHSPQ
T3 sequence (P20334 other isoform, or with tags, fused parts or gaps limits assumed): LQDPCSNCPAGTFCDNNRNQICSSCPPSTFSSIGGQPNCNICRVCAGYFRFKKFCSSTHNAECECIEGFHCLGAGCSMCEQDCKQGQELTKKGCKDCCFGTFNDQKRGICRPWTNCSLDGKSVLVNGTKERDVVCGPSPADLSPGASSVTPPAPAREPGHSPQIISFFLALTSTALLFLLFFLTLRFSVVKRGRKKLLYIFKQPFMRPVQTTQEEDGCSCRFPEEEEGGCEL
T5 sequence (P20334 other isoform, or with tags, fused parts or gaps limits assumed): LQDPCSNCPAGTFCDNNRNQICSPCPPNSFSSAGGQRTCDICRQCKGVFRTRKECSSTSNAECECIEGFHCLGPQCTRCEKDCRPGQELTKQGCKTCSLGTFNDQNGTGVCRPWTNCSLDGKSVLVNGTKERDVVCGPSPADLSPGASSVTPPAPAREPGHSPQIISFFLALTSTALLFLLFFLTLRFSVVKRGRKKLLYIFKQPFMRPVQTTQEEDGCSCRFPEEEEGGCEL
T8 sequence (P25942 other isoform, or with tags, fused parts or gaps limits assumed): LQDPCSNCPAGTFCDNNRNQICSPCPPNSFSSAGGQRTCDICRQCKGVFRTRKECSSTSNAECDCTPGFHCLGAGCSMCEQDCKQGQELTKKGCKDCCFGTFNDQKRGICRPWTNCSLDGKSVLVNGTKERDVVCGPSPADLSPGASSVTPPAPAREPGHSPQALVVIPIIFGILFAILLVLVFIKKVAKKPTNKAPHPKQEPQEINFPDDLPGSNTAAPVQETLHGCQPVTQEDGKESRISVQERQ
T6 sequence (P20334 other isoform, or with tags, fused parts or gaps limits assumed): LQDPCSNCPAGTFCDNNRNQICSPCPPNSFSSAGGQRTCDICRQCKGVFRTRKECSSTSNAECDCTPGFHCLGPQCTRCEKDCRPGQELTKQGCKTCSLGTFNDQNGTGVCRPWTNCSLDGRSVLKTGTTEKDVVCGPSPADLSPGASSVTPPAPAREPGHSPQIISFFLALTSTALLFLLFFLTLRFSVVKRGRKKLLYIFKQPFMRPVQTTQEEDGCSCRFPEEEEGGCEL
T2 sequence (P20334 other isoform, or with tags, fused parts or gaps limits assumed): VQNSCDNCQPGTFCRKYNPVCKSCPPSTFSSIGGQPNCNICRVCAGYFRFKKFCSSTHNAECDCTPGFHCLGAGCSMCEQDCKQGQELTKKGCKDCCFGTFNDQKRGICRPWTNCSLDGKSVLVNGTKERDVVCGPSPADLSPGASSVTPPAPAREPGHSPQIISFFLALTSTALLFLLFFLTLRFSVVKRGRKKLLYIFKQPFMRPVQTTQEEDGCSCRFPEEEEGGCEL
T4 sequence (P20334 other isoform, or with tags, fused parts or gaps limits assumed): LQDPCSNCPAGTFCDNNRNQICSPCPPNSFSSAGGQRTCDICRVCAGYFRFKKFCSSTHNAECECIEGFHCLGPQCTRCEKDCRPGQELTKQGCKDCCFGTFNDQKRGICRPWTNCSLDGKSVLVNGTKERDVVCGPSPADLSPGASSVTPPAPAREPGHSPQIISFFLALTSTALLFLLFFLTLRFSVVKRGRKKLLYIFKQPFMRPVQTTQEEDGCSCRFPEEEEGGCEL
T7 sequence (P20334 other isoform, or with tags, fused parts or gaps limits assumed): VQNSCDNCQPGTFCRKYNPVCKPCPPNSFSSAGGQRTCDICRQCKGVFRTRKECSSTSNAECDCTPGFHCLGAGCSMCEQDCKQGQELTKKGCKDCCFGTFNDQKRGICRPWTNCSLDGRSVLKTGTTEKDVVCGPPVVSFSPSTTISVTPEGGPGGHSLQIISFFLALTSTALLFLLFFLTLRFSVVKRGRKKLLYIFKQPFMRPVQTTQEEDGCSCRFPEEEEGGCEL

MFI antibody/isotype control, normalized to full-length human CD137 [2]: 0.11
MFI antibody/isotype control, normalized to full-length human CD137 [3]: 0.1
MFI antibody/isotype control, normalized to full-length human CD137 [4]: 0.25
MFI antibody/isotype control, normalized to full-length human CD137 [5]: 0.91
MFI antibody/isotype control, normalized to full-length human CD137 [6]: 0.85
MFI antibody/isotype control, normalized to full-length human CD137 [7]: 0.35
EC50 [8]: 0.17 to 0.26 µg/mL
Kd [9]: 14 nM
koff [9]: 0.0023 s⁻¹
kon [9]: 160000 M⁻¹ s⁻¹
B1: 1630/1631 (antibody, human IgG4 S228P, kappa, V domains shown)
VH: EVQLLESGGGLVQPGGSLRLSCAASGFTFGYSYMSWVRQAPGKGLEWVSSIGSGSSYTYYADSVKGRFTISRDNSKNTLYLQMNSLRAEDTAVYYCARVYSSPGIDYWGQGTLVTVSS
VL: DIQMTQSPSSLSASVGDRVTITCRASQSISSYLNWYQQKPGKAPKLLIYAASSLQSGVPSRFSGSGSGTDFTLTISSLQPEDFATYYCQQYYTWVPFTFGQGTKLEIKR
notes: the format in each assay is not restated
binding result [1]: no binding (tested: 10 µg/ml highest concentration tested)
